Results reported in PMC8794823.
pKd: −log10 of the molar value.

Tests used:
Assay in all cases: SPR
[1] = target: CVB3/GS12-55/GS/CHN/2012 (VP3-234V) full particles (coxsackievirus B3, isolate GS12-55/GS/CHN/2012)
[2] = target: CVB3/MKP3 (VP3-234Q) full particles (coxsackievirus B3, strain MKP)
[3] = target: CVB3/XJ12-36/XJ/CHN/2012 (VP3-234N) full particles (coxsackievirus B3, isolate XJ12-36/XJ/CHN/2012)
[4] = target: CVB3/HuN16-54/HuN/CHN/2016 (VP3-234D) full particles (coxsackievirus B3, isolate HuN16-54/HuN/CHN/2016)

Substance | pKd [1] | pKd [2] | pKd [3] | pKd [4]
soluble extracellular domain of the human CD55 protein (from UniProt P08174 35-285) (receptor) | 5.00 | 6.33 | 5.11 | 4.34
soluble extracellular D1 and D2 domains of the human CAR protein (from UniProt P78310 20-236) (receptor) | – | 5.50 | – | –
